The results in this text go back to patent US20050282739A1.

The chains are these.
B1: metallopeptide 11-3 (peptide)
peptide: [dF]QWAVC-NH2
modifications: bridge (positions not given here) via ReOCl3(PPh3)2; also: oxorhenium(V) N3S1 tetradentate complex at Cys 6
B2: metallopeptide 12-3 (peptide)
peptide: [dF]QWVCVHLL-NH2
modifications: bridge (positions not given here) via ReOCl3(PPh3)2; also: oxorhenium(V) N3S1 tetradentate complex at Cys 5
B3: metallopeptide 10-5 (peptide)
peptide: [dF]Q[dW]AVCHLL-NH2
modifications: bridge (positions not given here) via ReOCl3(PPh3)2; also: oxorhenium(V) N3S1 tetradentate complex at Cys 6
B4: metallopeptide 12-2 (peptide)
peptide: [dF]QWACVHLL-NH2
modifications: bridge (positions not given here) via ReOCl3(PPh3)2; also: oxorhenium(V) N3S1 tetradentate complex at Cys 5
B5: metallopeptide 10-4 (peptide)
peptide: [dF]QW[dA]VCHLL-NH2
modifications: bridge (positions not given here) via ReOCl3(PPh3)2; also: oxorhenium(V) N3S1 tetradentate complex at Cys 6
B6: metallopeptide 12-6 (peptide)
peptide: [dF]QWCVHLL-NH2
modifications: bridge (positions not given here) via ReOCl3(PPh3)2; also: oxorhenium(V) N3S1 tetradentate complex at Cys 4
B7: metallopeptide 10-1 (peptide)
peptide: [dF]QWAVC[dH]LL-NH2
modifications: bridge (positions not given here) via ReOCl3(PPh3)2; also: oxorhenium(V) N3S1 tetradentate complex at Cys 6
B8: metallopeptide 12-4 (peptide)
peptide: [dF]QWVCHLL-NH2
modifications: bridge (positions not given here) via ReOCl3(PPh3)2; also: oxorhenium(V) N3S1 tetradentate complex at Cys 5
B9: metallopeptide 11-1 (peptide)
peptide: [dF]QWAVCHL-NH2
modifications: bridge (positions not given here) via ReOCl3(PPh3)2; also: oxorhenium(V) N3S1 tetradentate complex at Cys 6
B10: metallopeptide 12-1 (peptide)
peptide: [dF]QWVCGHLL-NH2
modifications: bridge (positions not given here) via ReOCl3(PPh3)2; also: oxorhenium(V) N3S1 tetradentate complex at Cys 5
B11: metallopeptide 10-3 (peptide)
peptide: [dF]QWA[dV]CHLL-NH2
modifications: bridge (positions not given here) via ReOCl3(PPh3)2; also: oxorhenium(V) N3S1 tetradentate complex at Cys 6
B12: metallopeptide 11-2 (peptide)
peptide: [dF]QWAVCH-NH2
modifications: bridge (positions not given here) via ReOCl3(PPh3)2; also: oxorhenium(V) N3S1 tetradentate complex at Cys 6
B13: metallopeptide 4-6 (peptide)
peptide: YV[Nle]GHFCRWDRF-NH2
modifications: also: oxorhenium(V) N3S1 chelate: C7 SG + backbone N of H5, F6, C7, bridge at 7 via Re(V)=O, other end not in the chain
B14: metallopeptide 4-9 (peptide)
peptide: YV[Nle]CGHFRWDRF-NH2
modifications: also: oxorhenium(V) N3S1 chelate: C4 SG + backbone N of V2, X3, C4, bridge at 4 via Re(V)=O, other end not in the chain
B15: metallopeptide 4-7 (peptide)
peptide: YV[Nle]GHCFRWDRF-NH2
modifications: also: oxorhenium(V) N3S1 chelate: C6 SG + backbone N of G4, H5, C6, bridge at 6 via Re(V)=O, other end not in the chain
B16: metallopeptide 4-10 (peptide)
peptide: YVC[Nle]GHFRWDRF-NH2
modifications: bridge (positions not given here); not fully specified (bridges); printed as Tyr-Val-Cys-Nle-Gly-His-Phe-Arg-Trp-Asp-Arg-Phe-NH2.; also: oxorhenium(V) N3S1 complex
B17: metallopeptide 4-8 (peptide)
peptide: YV[Nle]GCHFRWDRF-NH2
modifications: also: oxorhenium(V) N3S1 chelate: C5 SG + backbone N of X3, G4, C5, bridge at 5 via Re(V)=O, other end not in the chain

Square brackets hold non-standard residues; d marks the D form. Ends that are not written are not given here. Nle = CCCC[C@H](N)C(=O)O

In one assay the target is bombesin receptor of rat brain membranes (rat). The experiment in a line: 125I-Bombesin competition, rat brain membranes.
As for B1, the % Inhibition (as a rule, the relative decrease from the control value, in per cent) was -81%.

Consider WAVC-NH2 (also: bridge at 4 via oxorhenium(V) N3S1 chelate, other end not in the chain) [metallopeptide 11-14], for which the % Inhibition worked out at 8%.

On to B2, for which the % Inhibition stood at 14%.

In the case of B3, the % Inhibition was determined as 6%.

Regarding B4, the % Inhibition was determined as 3%.

Consider B5, for which the % Inhibition is 2%.

Take AVCHL-NH2 (also: bridge at 3 via oxorhenium(V) N3S1 chelate, other end not in the chain) [metallopeptide 11-9]: the % Inhibition was 7%.

For the molecule WAVCH-NH2 (also: bridge at 4 via oxorhenium(V) N3S1 chelate, other end not in the chain) [metallopeptide 11-11], the % Inhibition was -1%.

In the case of WAVCHLL-NH2 (also: bridge at 4 via oxorhenium(V) N3S1 chelate, other end not in the chain) [metallopeptide 11-5], the % Inhibition came out at 18%.

On to B6, for which the % Inhibition is 10%.

For B7, the % Inhibition is 10%.

With AVCHLL-NH2 (also: bridge at 3 via oxorhenium(V) N3S1 chelate, other end not in the chain) [metallopeptide 11-6], the % Inhibition was 6%.

For the molecule B8, the % Inhibition was 5%.

Consider B9, for which the % Inhibition is 98%.

Regarding AVCH-NH2 (also: bridge at 3 via oxorhenium(V) N3S1 chelate, other end not in the chain) [metallopeptide 11-12], the % Inhibition was 5%.

In the case of QWAVCHL-NH2 (also: bridge at 5 via oxorhenium(V) N3S1 chelate, other end not in the chain) [metallopeptide 11-7], the % Inhibition is 5%.

Consider QWAVC-NH2 (also: bridge at 5 via oxorhenium(V) N3S1 chelate, other end not in the chain) [metallopeptide 11-13], for which the % Inhibition is -50%.

Regarding B10, the % Inhibition was found to be 2%.

With QWAVCHLL-NH2 (also: bridge at 5 via oxorhenium(V) N3S1 chelate, other end not in the chain) [metallopeptide 11-4], the % Inhibition came to 25%.

On to B11, for which the % Inhibition is 7%.

As for B12, the % Inhibition was 25%.

Regarding WAVCHL-NH2 (also: bridge at 4 via oxorhenium(V) N3S1 chelate, other end not in the chain) [metallopeptide 11-8], the % Inhibition was found to be 13%.

A further assay deals with human melanocortin-5 receptor (hMC5-R) (human) (UniProt P33032). Description: 125I-NDP-α-MSH competition, hMC5-R membranes.
human melanocortin-5 receptor (hMC5-R) (human), sequence (P33032 whole entry): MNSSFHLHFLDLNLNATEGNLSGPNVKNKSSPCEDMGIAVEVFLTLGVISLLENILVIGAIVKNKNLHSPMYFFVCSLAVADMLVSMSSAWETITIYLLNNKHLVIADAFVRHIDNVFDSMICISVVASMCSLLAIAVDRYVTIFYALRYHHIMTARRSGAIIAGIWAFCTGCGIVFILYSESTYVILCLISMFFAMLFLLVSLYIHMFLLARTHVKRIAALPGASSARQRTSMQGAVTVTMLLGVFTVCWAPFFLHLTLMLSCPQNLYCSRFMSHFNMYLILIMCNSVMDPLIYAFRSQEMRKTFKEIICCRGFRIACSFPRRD
With Ac-SYS[Nle]EHFRWGCKPV-NH2 (also: oxorhenium(V) N3S1 chelate at Cys11) [metallopeptide 1-4], the % Inhibition at 1 µM turned out to be 6%.

The next assay deals with melanocortin-1 receptor (MC1-R) of B-16 mouse melanoma cells (mouse) (UniProt Q01727). Description: 125I-NDP-α-MSH competition, B-16 membranes.
melanocortin-1 receptor (MC1-R) of B-16 mouse melanoma cells (mouse), sequence (Q01727 whole entry): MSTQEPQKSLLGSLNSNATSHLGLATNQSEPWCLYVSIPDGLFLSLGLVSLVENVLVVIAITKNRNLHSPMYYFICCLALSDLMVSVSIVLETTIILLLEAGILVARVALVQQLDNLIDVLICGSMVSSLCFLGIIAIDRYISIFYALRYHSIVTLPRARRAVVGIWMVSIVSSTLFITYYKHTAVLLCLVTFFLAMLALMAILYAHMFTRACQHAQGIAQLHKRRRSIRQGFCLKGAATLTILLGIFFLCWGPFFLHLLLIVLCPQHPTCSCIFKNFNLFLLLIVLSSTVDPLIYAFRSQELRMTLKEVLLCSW
Consider B13, for which the % Inhibition at 1 µM is -8%.

For B14, the % Inhibition at 1 µM was 1%.

With B15, the % Inhibition at 1 µM is 4%.

The target in a further assay is human melanocortin-4 receptor (hMC4-R) (human) (UniProt P32245). Description: 125I-NDP-α-MSH competition, hMC4-R membranes.
human melanocortin-4 receptor (hMC4-R) (human), sequence (P32245 whole entry): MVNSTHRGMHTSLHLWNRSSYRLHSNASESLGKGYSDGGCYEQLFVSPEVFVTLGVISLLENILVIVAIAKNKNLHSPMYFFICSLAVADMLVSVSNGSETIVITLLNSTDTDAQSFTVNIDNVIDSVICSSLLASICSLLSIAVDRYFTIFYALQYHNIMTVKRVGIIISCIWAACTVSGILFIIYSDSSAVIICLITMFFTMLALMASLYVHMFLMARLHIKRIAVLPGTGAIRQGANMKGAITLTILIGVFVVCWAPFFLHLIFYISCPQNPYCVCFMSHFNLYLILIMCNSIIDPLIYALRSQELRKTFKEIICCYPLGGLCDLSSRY
On to Ac-SYS[Nle]CEHFRWGKPV-NH2 (also: oxorhenium(V) N3S1 chelate at Cys5) [metallopeptide 1-10], for which the % Inhibition at 1 µM stood at 7%.

On to B14, for which the % Inhibition at 1 µM came to 4%.

For B16, the % Inhibition at 1 µM was 2%.

As for B15, the % Inhibition at 1 µM stood at 4%.

B17: the % Inhibition at 1 µM was -1%.

Ac-SYS[Nle]ECHFRWGKPV-NH2 (also: oxorhenium(V) N3S1 chelate at Cys6) [metallopeptide 1-9]: the % Inhibition at 1 µM was 3%.

For a further assay, the target named is human melanocortin-3 receptor (hMC3-R) (human) (UniProt P41968). The experiment in a line: 125I-NDP-α-MSH competition, hMC3-R membranes.
human melanocortin-3 receptor (hMC3-R) (human), sequence (P41968 whole entry): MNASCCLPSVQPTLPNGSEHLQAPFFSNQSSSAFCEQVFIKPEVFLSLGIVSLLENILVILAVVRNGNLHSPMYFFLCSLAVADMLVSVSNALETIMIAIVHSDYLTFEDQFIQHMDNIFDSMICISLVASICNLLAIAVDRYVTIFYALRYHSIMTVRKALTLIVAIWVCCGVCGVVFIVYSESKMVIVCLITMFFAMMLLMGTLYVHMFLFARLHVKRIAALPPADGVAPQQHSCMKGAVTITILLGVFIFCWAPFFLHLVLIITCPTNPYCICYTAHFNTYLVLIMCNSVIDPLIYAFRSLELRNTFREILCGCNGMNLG
Turning to Ac-SYS[Nle]EHFRWGKGCV-NH2 (also: oxorhenium(V) N3S1 chelate at Cys13) [metallopeptide 1-2], the % Inhibition at 1 µM was found to be 6%.

Ac-SYS[dC][Nle]EHFRWGKPV-NH2 (also: oxorhenium(V) N3S1 chelate at D-Cys4) [metallopeptide 2-11]: the % Inhibition at 1 µM was determined as 5%.
